Tests used:
[1] = target: T1, U153 integrase (Listeria phage U153) (UniProt Q8LTD8); experiment: cell_activity
T1 sequence: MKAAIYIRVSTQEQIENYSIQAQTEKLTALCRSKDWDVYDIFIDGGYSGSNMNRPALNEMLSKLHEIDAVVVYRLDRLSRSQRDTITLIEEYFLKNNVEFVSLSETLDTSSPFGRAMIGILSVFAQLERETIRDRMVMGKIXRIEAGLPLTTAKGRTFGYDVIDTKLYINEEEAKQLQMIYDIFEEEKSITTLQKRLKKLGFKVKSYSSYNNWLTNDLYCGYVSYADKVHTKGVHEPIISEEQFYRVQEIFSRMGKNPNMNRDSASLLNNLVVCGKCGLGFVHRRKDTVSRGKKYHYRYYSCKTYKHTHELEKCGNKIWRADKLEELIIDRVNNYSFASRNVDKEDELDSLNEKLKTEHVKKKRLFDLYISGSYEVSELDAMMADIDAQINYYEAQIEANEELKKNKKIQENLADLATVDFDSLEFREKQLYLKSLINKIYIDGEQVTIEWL

[2] = target: T2, PSA integrase (Listeria phage PSA) (UniProt Q8W5Y3); experiment: cell_activity; conditions: pPL2 in 10403S and EGDe; attB' side unrelated to 4b, attB side 96-97% identical
T2 sequence: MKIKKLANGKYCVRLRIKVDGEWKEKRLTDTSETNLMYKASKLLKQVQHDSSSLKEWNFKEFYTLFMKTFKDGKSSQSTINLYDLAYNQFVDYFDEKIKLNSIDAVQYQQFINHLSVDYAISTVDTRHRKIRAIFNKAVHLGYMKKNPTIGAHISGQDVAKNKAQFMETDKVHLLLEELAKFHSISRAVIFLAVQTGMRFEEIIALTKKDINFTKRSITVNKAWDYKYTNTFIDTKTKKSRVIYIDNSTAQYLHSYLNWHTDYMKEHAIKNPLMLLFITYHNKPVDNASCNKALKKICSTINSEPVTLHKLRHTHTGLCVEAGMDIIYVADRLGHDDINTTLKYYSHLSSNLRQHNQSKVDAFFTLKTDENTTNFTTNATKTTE

How did the activity (integrants per donor cell) ([1]; attPP' partner on pPL1, stable for 100 generations) turn out when U153 attPP' was run?
The activity (integrants per donor cell) was 0.0002.

With comK-attBB' as the substance, how does the activity (integrants per donor cell) ([1]; pPL1 integration at comK in DP-L4056, similar frequency in SLCC-5764 and 4b strains, PCR confirmed) read?
Its activity (integrants per donor cell) is 0.0002.

“tRNAArg-attBB' serotype 1/2 (10403S, EGDe)” was tested. Which activity (integrants per donor cell) [2] did it give?
Its activity (integrants per donor cell) is 0.0002.
